Measurements from patent US20240327522A1 (Genentech, published 2024).

How the values were obtained:
human αvβ5 = biological target: T1, human αvβ5 (human, UniProt P06756 31-992; P18084 24-719); test: SPR binding assay, sample hu.aVb1,3,5,6
T1 construct: Counter-screen integrin; construct not described; also called hu.aVb5; αV05

human αvβ6 = biological target: T2, human αvβ6 (human, UniProt P06756 31-992; P18564 22-709); test: SPR binding assay, sample hu.aVb1,3,5,6
T2 construct: Counter-screen integrin; construct not described; also called hu.aVb6; αV06

human αvβ3 = biological target: T3, human αvβ3 (human, UniProt P06756 31-992; P05106 27-718); test: SPR binding assay, sample hu.aVb1,3,5,6
T3 construct: Counter-screen integrin; construct not described; also called hu.aVb3; αV03

human αvβ1 = biological target: T4, human αvβ1 (human, UniProt P06756 31-992; P05556 21-728); test: SPR binding assay, sample hu.aVb1,3,5,6
T4 construct: Counter-screen integrin; construct not described; also called hu.aVb1; αVP1

[1] = biological target: T5, recombinant mouse αvβ8 protein (PARS-17103) (murine, UniProt P43406 31-988; Q0VBD0 43-681, limits assumed); test: SPR binding assay, experiment 2, antibody as ligand, aVb8 as sample
T5 construct: Made in house; also called mu.aVb8.17103

[2] = biological target: T6, recombinant human αvβ8 protein (PARS-17102) (human); test: as above
T6 construct: also called hu.aVb8.17102; not shown: C-terminal acid/basic coils and any purification tags
T6 alpha: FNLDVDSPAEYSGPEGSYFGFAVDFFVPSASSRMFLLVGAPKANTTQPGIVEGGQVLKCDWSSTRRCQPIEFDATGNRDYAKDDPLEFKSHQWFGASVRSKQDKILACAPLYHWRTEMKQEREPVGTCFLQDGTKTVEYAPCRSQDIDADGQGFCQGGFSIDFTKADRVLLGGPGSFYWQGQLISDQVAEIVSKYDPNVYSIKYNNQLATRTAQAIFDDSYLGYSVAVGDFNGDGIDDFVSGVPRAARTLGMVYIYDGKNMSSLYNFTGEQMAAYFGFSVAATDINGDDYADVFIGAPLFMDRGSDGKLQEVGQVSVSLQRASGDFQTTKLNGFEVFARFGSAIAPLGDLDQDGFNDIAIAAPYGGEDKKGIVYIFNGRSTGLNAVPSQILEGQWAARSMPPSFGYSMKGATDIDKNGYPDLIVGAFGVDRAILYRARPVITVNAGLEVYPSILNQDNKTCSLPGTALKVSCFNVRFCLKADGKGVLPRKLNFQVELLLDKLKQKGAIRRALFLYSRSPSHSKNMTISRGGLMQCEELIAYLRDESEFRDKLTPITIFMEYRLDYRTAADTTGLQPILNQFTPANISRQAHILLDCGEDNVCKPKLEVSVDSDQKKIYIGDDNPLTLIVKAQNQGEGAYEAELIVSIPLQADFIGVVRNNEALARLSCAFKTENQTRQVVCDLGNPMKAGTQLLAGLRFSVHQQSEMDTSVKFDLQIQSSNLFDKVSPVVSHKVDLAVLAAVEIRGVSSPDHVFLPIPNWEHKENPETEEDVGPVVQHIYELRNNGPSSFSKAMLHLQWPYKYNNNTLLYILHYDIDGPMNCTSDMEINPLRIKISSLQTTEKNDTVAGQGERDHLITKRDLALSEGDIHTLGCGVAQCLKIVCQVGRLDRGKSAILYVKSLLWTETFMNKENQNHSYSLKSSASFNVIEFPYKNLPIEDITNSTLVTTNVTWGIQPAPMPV
T6 beta: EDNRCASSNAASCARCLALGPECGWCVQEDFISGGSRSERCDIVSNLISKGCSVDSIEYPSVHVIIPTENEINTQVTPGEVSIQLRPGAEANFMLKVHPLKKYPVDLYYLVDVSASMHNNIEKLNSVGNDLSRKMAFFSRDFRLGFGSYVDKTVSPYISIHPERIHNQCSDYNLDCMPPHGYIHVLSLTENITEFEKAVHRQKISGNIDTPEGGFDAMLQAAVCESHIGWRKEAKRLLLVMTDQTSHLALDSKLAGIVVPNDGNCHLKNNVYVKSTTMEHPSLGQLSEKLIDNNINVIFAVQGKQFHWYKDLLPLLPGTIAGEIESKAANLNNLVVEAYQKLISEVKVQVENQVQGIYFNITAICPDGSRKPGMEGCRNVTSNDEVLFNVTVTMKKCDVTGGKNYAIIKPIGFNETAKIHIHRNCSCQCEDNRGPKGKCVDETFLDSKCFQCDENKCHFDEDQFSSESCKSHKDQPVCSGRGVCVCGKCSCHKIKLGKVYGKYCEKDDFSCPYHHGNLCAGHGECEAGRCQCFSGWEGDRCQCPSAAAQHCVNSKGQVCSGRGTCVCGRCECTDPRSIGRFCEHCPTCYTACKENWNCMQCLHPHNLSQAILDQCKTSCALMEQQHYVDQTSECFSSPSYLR

cyno.aVb8.13650 = biological target: T7, cyno.aVb8.13650 (cynomolgus, UniProt A0A2K5WCD3 31-992; G7P0S0 43-684); test: as above
T7 construct: Carries another lot/construct number than cyno.aVb8-19393; kept apart; also called cynomolgus αvβ8

[3] = biological target: T5, recombinant mouse αvβ8 protein …; test: SPR binding assay, experiment 1, antibody as ligand, aVb8 as sample
[4] = biological target: T8, recombinant cynomolgus monkey αvβ8 protein (PARS-19393) (cynomolgus monkey, UniProt A0A2K5WCD3 31-992; G7P0S0 43-684); test: as above
T8 construct: also called cyno.aVb8-19393; cyno.aVb8

[5] = biological target: T6, recombinant human αvβ8 protein …; test: as above

T5 sequence (P43406 31-988 limits assumed, chain 1 of 2): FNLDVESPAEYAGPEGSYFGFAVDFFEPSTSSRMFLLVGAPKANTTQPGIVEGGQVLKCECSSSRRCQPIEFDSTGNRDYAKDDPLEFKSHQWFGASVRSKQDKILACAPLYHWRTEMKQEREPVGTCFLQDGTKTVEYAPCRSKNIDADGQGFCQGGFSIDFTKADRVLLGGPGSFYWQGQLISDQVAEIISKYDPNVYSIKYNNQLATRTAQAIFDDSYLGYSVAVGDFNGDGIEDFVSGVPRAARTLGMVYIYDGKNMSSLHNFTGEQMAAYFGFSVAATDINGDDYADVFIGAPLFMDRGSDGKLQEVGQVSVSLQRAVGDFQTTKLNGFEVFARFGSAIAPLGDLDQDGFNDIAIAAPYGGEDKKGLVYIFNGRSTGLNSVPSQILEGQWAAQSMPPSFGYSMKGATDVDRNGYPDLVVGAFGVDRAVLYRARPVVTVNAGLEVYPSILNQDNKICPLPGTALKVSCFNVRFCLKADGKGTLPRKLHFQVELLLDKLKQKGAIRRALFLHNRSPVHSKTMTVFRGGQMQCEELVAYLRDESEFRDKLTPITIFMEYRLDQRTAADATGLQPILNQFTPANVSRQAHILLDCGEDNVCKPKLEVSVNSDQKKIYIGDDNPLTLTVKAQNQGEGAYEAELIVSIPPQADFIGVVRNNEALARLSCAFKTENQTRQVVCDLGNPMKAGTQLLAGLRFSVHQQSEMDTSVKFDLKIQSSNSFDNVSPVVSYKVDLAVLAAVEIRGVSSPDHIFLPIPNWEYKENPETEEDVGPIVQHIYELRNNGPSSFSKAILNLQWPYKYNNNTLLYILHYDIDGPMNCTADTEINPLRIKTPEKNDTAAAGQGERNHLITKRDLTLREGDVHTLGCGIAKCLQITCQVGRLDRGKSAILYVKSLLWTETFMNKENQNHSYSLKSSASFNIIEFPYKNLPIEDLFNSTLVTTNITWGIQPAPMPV
T5 sequence (Q0VBD0 43-681 limits assumed, chain 2 of 2): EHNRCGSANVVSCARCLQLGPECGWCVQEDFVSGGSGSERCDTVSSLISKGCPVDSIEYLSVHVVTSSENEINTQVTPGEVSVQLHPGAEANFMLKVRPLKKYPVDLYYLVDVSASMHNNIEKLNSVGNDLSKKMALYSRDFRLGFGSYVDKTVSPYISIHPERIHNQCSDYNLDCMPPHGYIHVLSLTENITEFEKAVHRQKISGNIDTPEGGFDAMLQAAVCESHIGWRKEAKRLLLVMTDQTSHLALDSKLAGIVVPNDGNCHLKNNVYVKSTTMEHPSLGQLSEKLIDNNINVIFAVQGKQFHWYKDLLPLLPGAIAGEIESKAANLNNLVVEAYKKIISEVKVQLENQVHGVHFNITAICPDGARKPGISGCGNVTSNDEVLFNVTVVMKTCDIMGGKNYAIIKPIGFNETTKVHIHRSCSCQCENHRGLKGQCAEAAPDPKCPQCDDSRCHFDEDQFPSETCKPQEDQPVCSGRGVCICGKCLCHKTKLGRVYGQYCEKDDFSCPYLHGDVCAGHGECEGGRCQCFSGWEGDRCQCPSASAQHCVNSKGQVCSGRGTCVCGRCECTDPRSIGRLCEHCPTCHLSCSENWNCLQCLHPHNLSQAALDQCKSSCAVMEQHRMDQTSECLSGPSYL
T1 sequence (P18084 24-719 limits assumed, one chain of several): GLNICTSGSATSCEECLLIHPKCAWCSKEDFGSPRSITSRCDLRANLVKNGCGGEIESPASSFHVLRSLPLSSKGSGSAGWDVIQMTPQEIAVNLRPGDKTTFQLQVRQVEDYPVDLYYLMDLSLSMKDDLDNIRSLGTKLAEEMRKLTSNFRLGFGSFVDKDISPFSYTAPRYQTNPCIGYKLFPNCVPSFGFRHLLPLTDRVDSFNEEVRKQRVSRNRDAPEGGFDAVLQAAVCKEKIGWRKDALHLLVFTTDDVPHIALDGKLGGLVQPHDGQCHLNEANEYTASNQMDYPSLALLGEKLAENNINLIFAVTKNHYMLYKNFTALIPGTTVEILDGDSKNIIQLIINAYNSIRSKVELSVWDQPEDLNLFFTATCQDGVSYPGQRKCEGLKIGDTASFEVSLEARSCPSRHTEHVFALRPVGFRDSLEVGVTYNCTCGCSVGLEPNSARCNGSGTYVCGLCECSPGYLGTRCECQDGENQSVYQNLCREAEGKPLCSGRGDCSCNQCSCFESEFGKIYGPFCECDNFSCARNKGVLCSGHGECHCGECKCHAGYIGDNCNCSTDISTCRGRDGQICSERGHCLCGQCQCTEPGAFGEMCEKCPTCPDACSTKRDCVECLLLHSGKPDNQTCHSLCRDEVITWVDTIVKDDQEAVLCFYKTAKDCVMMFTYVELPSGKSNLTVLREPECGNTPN
T3 sequence (P05106 27-718 limits assumed, one chain of several): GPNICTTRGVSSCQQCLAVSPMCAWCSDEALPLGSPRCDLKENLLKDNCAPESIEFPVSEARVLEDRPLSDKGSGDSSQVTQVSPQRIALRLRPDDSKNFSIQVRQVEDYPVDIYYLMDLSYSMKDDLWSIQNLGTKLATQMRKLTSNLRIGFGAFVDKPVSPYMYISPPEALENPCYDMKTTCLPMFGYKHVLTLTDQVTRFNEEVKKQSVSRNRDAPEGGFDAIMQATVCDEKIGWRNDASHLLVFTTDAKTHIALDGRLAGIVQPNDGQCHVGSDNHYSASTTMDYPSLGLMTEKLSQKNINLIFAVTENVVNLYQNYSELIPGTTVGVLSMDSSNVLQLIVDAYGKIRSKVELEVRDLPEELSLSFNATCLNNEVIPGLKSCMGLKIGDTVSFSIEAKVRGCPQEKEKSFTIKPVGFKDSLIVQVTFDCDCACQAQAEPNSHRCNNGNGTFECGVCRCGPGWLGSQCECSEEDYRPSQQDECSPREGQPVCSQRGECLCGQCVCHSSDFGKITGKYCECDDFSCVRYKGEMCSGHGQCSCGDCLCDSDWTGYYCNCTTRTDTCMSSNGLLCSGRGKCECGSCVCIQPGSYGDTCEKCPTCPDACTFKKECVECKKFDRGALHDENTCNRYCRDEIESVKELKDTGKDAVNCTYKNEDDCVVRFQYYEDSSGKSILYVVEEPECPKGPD
T2 sequence (P18564 22-709 limits assumed, one chain of several): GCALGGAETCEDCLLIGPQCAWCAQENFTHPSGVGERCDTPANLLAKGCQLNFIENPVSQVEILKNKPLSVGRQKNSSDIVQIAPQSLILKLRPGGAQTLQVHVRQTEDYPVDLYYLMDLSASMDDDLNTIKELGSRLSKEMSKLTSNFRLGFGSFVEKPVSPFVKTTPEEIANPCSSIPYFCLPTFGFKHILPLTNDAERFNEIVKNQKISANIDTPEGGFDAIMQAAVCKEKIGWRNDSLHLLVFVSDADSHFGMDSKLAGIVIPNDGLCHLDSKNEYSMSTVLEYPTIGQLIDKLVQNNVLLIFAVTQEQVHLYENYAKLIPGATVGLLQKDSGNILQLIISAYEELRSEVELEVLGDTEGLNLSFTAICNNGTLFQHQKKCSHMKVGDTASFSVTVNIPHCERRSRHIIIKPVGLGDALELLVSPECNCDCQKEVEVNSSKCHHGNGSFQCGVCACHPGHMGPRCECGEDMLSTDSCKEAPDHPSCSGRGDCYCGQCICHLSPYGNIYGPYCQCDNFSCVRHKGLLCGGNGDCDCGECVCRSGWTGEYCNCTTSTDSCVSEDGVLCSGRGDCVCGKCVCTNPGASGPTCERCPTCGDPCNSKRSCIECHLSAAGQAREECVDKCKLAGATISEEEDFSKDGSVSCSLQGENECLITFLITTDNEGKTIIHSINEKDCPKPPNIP
T4 sequence (P05556 21-728 limits assumed, one chain of several): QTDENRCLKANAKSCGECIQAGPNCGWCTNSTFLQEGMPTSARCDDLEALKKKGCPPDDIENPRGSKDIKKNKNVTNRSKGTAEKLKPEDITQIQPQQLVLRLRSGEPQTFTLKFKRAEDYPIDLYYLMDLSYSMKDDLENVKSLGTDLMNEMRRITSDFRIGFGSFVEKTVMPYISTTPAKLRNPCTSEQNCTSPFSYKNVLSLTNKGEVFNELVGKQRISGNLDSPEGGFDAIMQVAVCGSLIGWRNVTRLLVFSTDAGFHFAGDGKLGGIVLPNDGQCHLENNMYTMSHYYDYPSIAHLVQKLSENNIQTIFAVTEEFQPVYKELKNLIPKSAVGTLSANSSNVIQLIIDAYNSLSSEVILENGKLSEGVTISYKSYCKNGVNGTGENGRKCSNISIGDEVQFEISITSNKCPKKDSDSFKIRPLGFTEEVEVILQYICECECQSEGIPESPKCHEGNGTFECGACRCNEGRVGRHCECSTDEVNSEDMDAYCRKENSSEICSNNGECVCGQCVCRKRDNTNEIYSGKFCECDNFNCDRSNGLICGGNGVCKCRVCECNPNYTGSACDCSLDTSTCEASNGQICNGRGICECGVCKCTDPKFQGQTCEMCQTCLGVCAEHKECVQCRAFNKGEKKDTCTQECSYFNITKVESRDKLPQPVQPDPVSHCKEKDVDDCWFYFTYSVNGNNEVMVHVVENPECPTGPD

binding result (human αvβ5): no binding
binding result (human αvβ6): no binding
binding result (human αvβ3): no binding
binding result (human αvβ1): no binding
Kd [1]: 3.42 nM
koff [1]: 0.000236 s⁻¹
kon [1]: 69100 M⁻¹ s⁻¹
Kd [2]: 2.95 nM
koff [2]: 0.000195 s⁻¹
kon [2]: 66100 M⁻¹ s⁻¹
Kd (cyno.aVb8.13650): 12.9 nM
koff (cyno.aVb8.13650): 0.000443 s⁻¹
kon (cyno.aVb8.13650): 34500 M⁻¹ s⁻¹
Kd [3]: 9.91 nM
koff [3]: 0.000311 s⁻¹
kon [3]: 31400 M⁻¹ s⁻¹
Kd [4]: 11.1 nM
koff [4]: 0.000284 s⁻¹
kon [4]: 25500 M⁻¹ s⁻¹
Kd [5]: 10.1 nM
koff [5]: 0.000283 s⁻¹
kon [5]: 28000 M⁻¹ s⁻¹
B1: Hu.aVb8-92.H13L1 (aVb8-92.H13L1.hIgG1.LALAPG) (antibody, V domains shown)
VH: EQQLLESGGGLVQPGGSLRLSCAASGFSLSSYAMGWVRQAPGKGLEWIGVIRKDDNTYYGNWAKGRFTISRDSSKNTLYLQMNSLRAEDTAVYFCARALNTYVGFPYFNIWGPGTLVTVSS
VL: DAVLTQSPDSLAVSLGERATINCQSIKSVGDNKWLAWYQQKPGQPPKLLIYDASDLASGVPDRFSGSGSRTDFTLTISSLQAEDVAVYYCAGSVSSGDSGFGGGTKVEIKR
notes: Human IgG1 LALAPG; also called PARS-20463-65 (IH) aVb8-92.H13L1.hIgG1.LALAPG; humanized αvβ8-92
